Key:
[1] = target: folate receptor-alpha (FR) (Homo sapiens, UniProt P15328); conditions: background statement; cited from earlier work
[2] = type: physicochemical; conditions: pH 7.4
Protocol: The n-octanol/PBS distribution coefficients (log D values) were determined for each folate radioconjugate of the disclosure in order to assess their hydrophilic/hydrophobic properties. The log D values of the folate radioconjugates of the disclosure (50 MBq/nmol) were determined as previously reported, after dilution in PBS pH 7.4 to obtain an activity concentration of 10 MBq/500 μL. A sample of each radiofolate (ca. 0.5 MBq, 25 μL, 0.01 nmol) was added to a mixture of 1475 μL PBS pH 7.4 and 1500 μL n-octanol. The vials were vortexed vigorously for 1 min followed by centrifugation for 6 min at 2500 rpm for phase separation. An aliquot was taken from each phase and measured in a gamma-counter (Perkin Elmer, Wallac Wizard 1480). The distribution coefficients were calculated as the logarithm of the ratio of counts per minute (cpm) measured in the n-octanol phase relative to the cpm measured in the PBS phase. The results were listed as mean±SD of the data obtained from 3 independent experiments, each performed with five replicates.

[3] = Radiolytic stability of the radioconjugates (HPLC); type: physicochemical; conditions: room temperature, PBS pH 7.4, 100 MBq/500 μL, relative to value at t0
Protocol: Radiolytic stability: After performing quality control of the radioconjugates (50 MBq/nmol) using HPLC (t0=0 h), the radioconjugates were diluted in PBS pH 7.4 to obtain an activity concentration of 100 MBq/500 μL. The radioconjugate dilutions were incubated at room temperature. The integrity of the radioconjugates was assessed after a 4 h and 24 h, respectively, using HPLC. The HPLC chromatograms were analyzed by determination of the peak area of the radiolabeled product, the released lutetium-177 as well as the degradation products of unknown structure. The quantity of the intact product was expressed as the percentage of the sum of integrated peak areas of the entire chromatogram and set into relation to the original value determined at to (radiochemical purity >95% set as 100%).

mouse albumin = test system: T1, mouse albumin; experiment: in vitro; type: in vitro ADME; conditions: plasma
T1 construct: tissue Rockland Immunochemicals, Inc., USA; host or cells: mouse blood plasma
Protocol: (§1) Albumin-binding properties were determined in mouse and human blood plasma. The albumin-binding properties of the folate radioconjugates of the disclosure in mouse blood plasma (Rockland Immunochemicals, Inc., USA) and human blood plasma (Stiftung Blutspende SRK Aargau-Solothurn, Switzerland) were determined using an ultrafiltration method (Deberle, L. M. et al., Molecules 2020, 25, (11)). The amount of serum albumin in mouse (MSA) and human (HSA) blood plasma was defined as 550 μM and 800 μM, respectively, based on measurements using a dry chemistry analyzer (DRI-CHEM 4000i, FUJIFILM, Japan). The folate radioconjugates of the disclosure (50 MBq/nmol, ca. 300 kBq, 0.006 nmol in 15 μL) were added to samples of mouse and human blood plasma (150 μL), followed by incubation of the samples at 37° C. for 30 min. The samples were loaded on Amicon centrifugal filters (cut-off of 10 kDa; Merck Millipore) followed by centrifugation (14,000 rcf, 30 min, 4° C.) to allow the separation of the plasma-bound from the plasma-unbound (free) fractions of each sample. The inserts of the filter devices were inverted and centrifuged at 200 rcf for 3 min to recover the protein-bound fraction. The activity of the protein-bound fraction as well as the activity in the filtrate and in the filter unit were measured separately in a gamma-counter (Perkin Elmer, Wallac Wizard 1480). The percentage of radioconjugate bound to mouse and human albumin, respectively, was set in relation to the total activity measured (Table 4).

human albumin = test system: T2, human albumin; experiment: in vitro; type: in vitro ADME; conditions: plasma
T2 construct: tissue Stiftung Blutspende SRK Aargau-Solothurn, Switzerland; host or cells: human blood plasma
Protocol: as §1

[4] = target: T3, FR (folate receptor) on IGROV-1 cells (Homo sapiens, UniProt P15328); experiment: FR-binding affinity (KD) on FR-positive IGROV-1 cells; conditions: 1 h at 4° C., average of 3 experiments
T3 construct: FR-positive IGROV-1 cells (human ovarian carcinoma cell line); endogenous in cells; host or cells: IGROV-1 human ovarian carcinoma cells (provided by Dr. Gerrit Janssen, Free University Medical Center Amsterdam)
Protocol: The determination of the KD values was performed as previously reported (Deberle, L. M. et al; Bioconj Chem 2021, 32, p. 1617). FR-positive IGROV-1 cells (human ovarian carcinoma cell line, kindly provided by Dr. […] Janssen, Free University Medical Center Amsterdam, The Netherlands) were seeded in 48-well plates (2.5×10^5 cells/well) in 500 μL FFRPMI medium with supplements. The cells were incubated at 37° C. and 5% CO2 to allow cell adhesion overnight. The experiment was performed on ice using ice-cold medium and buffer solutions. After removal of the supernatant, the cells were rinsed once with PBS prior to the addition of FFRPMI medium without supplements (450 μL/well). The respective folate radioconjugate of the disclosure (20 MBq/nmol) was added to each well at variable concentrations (in the range of 0.1 to 500 nM, 50 μL per well). […] The IGROV-1 tumor cells were incubated for 1 h at 4° C. on a shaker, followed by removal of the supernatants and rinsing the cells twice with PBS. After lysis of the cells with NaOH solution (1 M, aq., 500 μL), the samples were counted for activity in a γ-counter (Wallac Wizard 1480, Perkin Elmer). The counts per minute (cpm) of the specific binding (determined by subtracting the cpm of the unspecific binding from the cpm of total binding), were plotted against the molar concentration of the added folate radioconjugates of the disclosure. […]

T3 sequence (P15328 25-234): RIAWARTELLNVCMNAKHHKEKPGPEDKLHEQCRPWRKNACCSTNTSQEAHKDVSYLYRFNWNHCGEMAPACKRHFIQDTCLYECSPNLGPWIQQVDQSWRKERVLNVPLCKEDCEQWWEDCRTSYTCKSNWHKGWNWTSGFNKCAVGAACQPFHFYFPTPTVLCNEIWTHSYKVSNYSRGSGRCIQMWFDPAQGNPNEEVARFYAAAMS
folate receptor-alpha (FR), sequence (P15328 25-234, species assumed): as the sequence (P15328 25-234) above

## CN1c2c(nc(N)[nH]c2=O)NCC1CNc1ccc(C(=O)N[C@@H](CCC(=O)O)C(=O)O)cc1 (stereo partly shown) [5-methyltetrahydrofolic acid]
[1]
  FR affinity (KD): nanomolar range

## CN1c2c(nc(N)[nH]c2=O)NC[C@H]1CNc1ccc(C(=O)N[C@@H](CCC(=O)N[C@@H](CCCCNC(=O)CN2CCN(CC(=O)O)CCN(CC(=O)O)CCN(CC(=O)O)CC2)C(=O)N[C@@H](CCCCNC(=O)CCCCc2ccc(I)cc2)C(=O)O)C(=O)O)cc1 [[^177Lu]Lu-6R-RedFol-24, metal not drawn]
[2]
  logD: -3.5 ± 0.2
[3]; 4 h
  Intact radiolabeled product [%]: ≥99%
[3]; 24 h
  Intact radiolabeled product [%]: ≥99%
Mouse albumin
  fraction unbound at 30 min, 0.036 µM: 0.27
Human albumin
  fraction unbound at 30 min, 0.036 µM: 0.06
[4]
  Kd: 5.6 nM

## CN1c2c(nc(N)[nH]c2=O)NC[C@@H]1CNc1ccc(C(=O)N[C@@H](CCC(=O)N[C@@H](CCCCNC(=O)CN2CCN(CC(=O)O)CCN(CC(=O)O)CCN(CC(=O)O)CC2)C(=O)N[C@@H](CCCCNC(=O)CCCCc2ccc(I)cc2)C(=O)O)C(=O)O)cc1 [[^177Lu]Lu-6S-RedFol-24, metal not drawn]
[2]
  logD: -3.1 ± 0.1
[3]; 4 h
  Intact radiolabeled product [%]: ≥99%
[3]; 24 h
  Intact radiolabeled product [%]: ≥99%
Mouse albumin
  fraction unbound at 30 min, 0.036 µM: 0.26
Human albumin
  fraction unbound at 30 min, 0.036 µM: 0.14
[4]
  Kd: 4.6 nM

From patent publication US20250127938A1, “THERAGNOSTIC FOLATE CONJUGATES” (Merck Patent GmbH, priority 2022, published 2025)
